Where only a bound is given, the exact number is not on record here.

1 molecule from patent publication EP4413995A1 (Université de Franche-Comté, dated 2024) can be followed below.

Experiment [1] has as its target T1, CD123 (recombinant, soluble, analyte of the Octet assay) (human, UniProt P26951 19-305).
T1 chain: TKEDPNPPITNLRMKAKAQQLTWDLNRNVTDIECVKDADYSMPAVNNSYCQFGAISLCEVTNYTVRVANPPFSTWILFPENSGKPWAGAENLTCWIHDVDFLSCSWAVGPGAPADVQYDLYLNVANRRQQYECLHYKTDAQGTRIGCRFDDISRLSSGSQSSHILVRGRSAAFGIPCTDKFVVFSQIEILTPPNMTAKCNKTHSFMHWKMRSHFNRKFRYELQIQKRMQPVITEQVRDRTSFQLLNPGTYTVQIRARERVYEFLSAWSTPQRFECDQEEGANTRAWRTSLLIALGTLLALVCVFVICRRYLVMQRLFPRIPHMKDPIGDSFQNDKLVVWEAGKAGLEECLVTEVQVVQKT
Kind of experiment: BLI (Octet, ForteBio), antibody immobilized on streptavidin biosensors, CD123 in solution (row of 12.5 nM). (In general: BLI is a label-free optical method that tracks binding on a fibre tip over time.)

The target in experiment [2] is T1, CD123 (recombinant, soluble, analyte of …). The experiment is described as follows: BLI (Octet, ForteBio), antibody immobilized on streptavidin biosensors, CD123 in solution (row of 25 nM).
For experiment [3] the target is unchanged. Kind of experiment: BLI (Octet, ForteBio), antibody immobilized on streptavidin biosensors, CD123 in solution (row of 50 nM).
For experiment [4] the target is unchanged. Kind of experiment: BLI (Octet, ForteBio), antibody immobilized on streptavidin biosensors, CD123 in solution (row of 6.25 nM).

B1: 18B4D5 (antibody, V domains shown)
VH: EVKLQESGPGLVKPSQSLSLTCTVTGYSITSDYTWNWIRQFPGNKLEWMGYISFSGSTSYNPSLKSRLSITRDTSKNQFFLQLNSVTTEDTATYYCARGLDYWGQGTTLTVSS
VL: DIVMTQSPAIMSASLGERVTMTCTASSSISSSYLYWYQQKPGSSPKLWIYSTSNLASGVPARFSGSGSGTSYSLTISSMEAEDAATYYCHQLHRSPWTFGGGTKLEIKR
In the case of B1, the dissociation constant (Kd) in experiment [1], in experiment [2], in experiment [3] and in experiment [4] was below 1 pM in each case. In addition, the koff in experiment [1], in experiment [2], in experiment [3] and in experiment [4] was below 1e-07 s⁻¹ each time. The kon in experiment [1], in experiment [2], in experiment [3] and in experiment [4] was 122000 M⁻¹ s⁻¹ each time.
